Experimental data published in patent US20240392003A1 (NUMAB THERAPEUTICS, published 2024).
Like-named read-outs stand apart in the source and are kept apart here.

Assays:
[1] = molecular target: T1, recombinant human ROR1 protein (Fc-Tag, Acro Biosystems RO1-H5250) (human, UniProt Q01973 30-406); assay: SPR; hROR1-Fc immobilized;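 note: biacore T200 SPR with ROR1 covalently coupled to a CM5 chip, analyte titration series, apparent rate and equilibrium constants fitted with a 1:1 Langmuir model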
T1 construct: Bought; also called hROR1; recombinant human ROR1 ECD; not shown: Fc tag

[2] = molecular target: T2, human ROR1 expressed on cells (human, UniProt Q01973 30-937); assay: flow cytometry, MDA-MB-231 cells, 1 mg/ml hSA
T2 construct: whole, on cells; One molecule for cell-surface ROR1 on all cell lines; the cell line is named under assay; also called hROR1; plasma membrane human ROR1
Method: After incubation at 4° C. for 1 h in presence of 1 mg/mi of human serum albumin (hSA), plates were washed and incubated with specific detection antibodies.
The binding of anti-ROR1xhSAxCD3 scMATCH3 molecules to plasma membrane human ROR1 was assessed by flow cytometry.

[3] = molecular target: T2, human ROR1 expressed on cells; assay: cell-based or functional assay
[4] = molecular target: T3, recombinant human CD3 epsilon extra-cellular domain protein (His-Tag, SinoBiological) (human, UniProt P07766 23-126); assay: SPR; hCD3ε immobilized, two-state fit (kd1)
T3 construct: extracellular domain; Bought; also called hCD3ε; human CD3ε; not shown: His tag

[5] = molecular target: T3, recombinant human CD3 epsilon …; assay: SPR; hCD3ε immobilized, two-state fit (ka1)
Method: (§1) Binding kinetics (including affinity) of the nine selected scMATCH3 molecules to recombinant human CD3 epsilon extra-cellular domain protein (hCD3ε; His-Tag, SinoBiological) were determined by SPR analysis on a T200 device (Biacore, Cytiva). Recombinant hCD3ε molecules were covalently immobilized to a carboxymethylated dextran surface (CM5 sensorchip; Biacore, Cytiva) and a titration series of each MATCH3 molecule was injected as analyte. After each analyte injection-cycle, every flow channel on the sensor chip was regenerated (Glycine, pH 2.0 and 3 M MgCl₂), and a new concentration of MATCH3 molecule was injected. […] The apparent dissociation (kₐ₁) and association (kₐ₁) rate constants, the second reaction constants (kₐ₂ and kd) and the apparent dissociation equilibrium constant (KD) were calculated with the Biacore analysis software (Biacore Evaluation software Version 3.2, Cytiva) using a two-state binding model, and quality of the fits was monitored based on relative Chi2. The binding level was calculated as the maximum stability binding achieved normalized to the theoretical Rmax.

[6] = molecular target: T3, recombinant human CD3 epsilon …; assay: SPR; hCD3ε immobilized, two-state fit;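 note: biacore T200 measurement with target covalently coupled to a CM5 chip, antibody constructs injected as analyte over a concentration series, constants derived in Biacore Evaluation software 3.2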
Method: as §1

[7] = molecular target: T2, human ROR1 expressed on cells; assay: cell-based or functional assay; remark: listed apart in the source
[8] = molecular target: T2, human ROR1 expressed on cells; assay: cell-based or functional assay; remark: listed apart in the source
[9] = molecular target: T2, human ROR1 expressed on cells; assay: cell-based or functional assay; remark: listed apart in the source

| Binder | Kd [1] [nM] | koff [1] [s⁻¹] | kon [1] [M⁻¹ s⁻¹] | EC50 [2] [nM] | Rel. maximum binding (MFIscMATCH3/MFIPRO2213) [2] | EC50 (nM) Cytotoxicity (MDA-MB-231) [3] [nM] | koff [4] [s⁻¹] | kon [5] [M⁻¹ s⁻¹] | Kd [6] [nM] | ka2 [6] [s⁻¹] | kd2 [6] [s⁻¹] | Avg. % max. CD4 T cell act. (JIMT-1) [7] [%] | Avg. % max. CD4 T cell act. (MDA-MB-231) [7] [%] | Avg. % max. CD4 T cell act. (SKOV3) [7] [%] | Avg. EC50 (nM) CD4 T cell act. (JIMT-1) [7] [nM] | Avg. EC50 (nM) CD4 T cell act. (MDA-MB-231) [7] [nM] | Avg. EC50 (nM) CD4 T cell act. (SKOV3) [7] [nM] | Avg. % max. CD8 T cell act. (JIMT-1) [8] [%] | Avg. % max. CD8 T cell act. (MDA-MB-231) [8] [%] | Avg. % max. CD8 T cell act. (SKOV3) [8] [%] | other results |
| --- | --- | --- | --- | --- | --- | --- | --- | --- | --- | --- | --- | --- | --- | --- | --- | --- | --- | --- | --- | --- | --- |
| PRO2509 (bispecific antibody, trispecific anti-ROR1 x hSA x CD3 scMATCH3, single chain; also called 19-04-A10-sc06 scDb-o/28-21-D09-sc04 scDb-i/55-39-G02-sc02-scFv) AFELTQSPSSLSASVGDRVTITCQASESINSRLAWYQQKPGQPPKLLIYDASDLTSGVPSRFSGSGSGTDFTLTISSLQPEDFATYYCQGYGGSSTTTFGCGTKLTVLGGGGGSEVQLVESGGGLVQPGGSLRLSCAASGFSLSSYDMSWVRQAPGKGLAWIGASYASGPTYYASWAKGRFTISRDNSKNTVYLQMNSLRAEDTATYFCARGGWTGTSHSNIWGQGTLVTVSSGGGGSGGGGSGGGGSGGGGSDIQMTQSPSSLSASVGDRVTITCQSSQSVFSNNYLAWFQQKPGQSPKRLIYSASTLASGVPSRFSGSGSGTDFTLTISSLQPEDFATYYCLGSYACSSADCYVFGTGTKVTVLGGGGGSEVQLVESGGGLVQPGGSLRLSCAASGFSLSSYAMNWVRQAPGKCLEWIGHINAGDIAYYATWAKGRFTISRDNSKNTVYLQMNSLRAEDTAVYFCARGAGGFSTGPFKLWGQGTLVTVSSGGGGSGGGGSAQQLTQSPSSLSASVGDRVTITCQASQNVWNNNYLSWFQQKPGKPPKLLIVTASTLASGVSSRFSGSGSGTDFTLTISSLQPEDFATYYCAGGFSGEIRAFGTGTKVTVLGGGGGSGGGGSGGGGSGGGGSQSQLVESGGGLVQPGGSLRLSCAVSGLSLSRNAMSWVRQAPGKGLEWIGIILTSGSTYYASWAKGRFTISKDNSKNTVYLQMNSLRAEDTAVYFCVRGIASSSLKSFWGQGTLVTVSS | 0.36 | 0.00047 | 1.3e+06 | 1.12 | 2.57 | 0.31 | 0.0034 | 1e+06 | 2.1 | 0.00096 | 0.0016 |  |  |  |  |  |  |  |  |  |  |
| PRO2557 (bispecific antibody, trispecific anti-ROR1 x hSA x CD3 scMATCH3, single chain; also called 19-04-A10-sc06 scDb-o/28-21-D09-sc04 scDb-i/55-39-G02-sc06-scFv) AFELTQSPSSLSASVGDRVTITCQASESINSRLAWYQQKPGQPPKLLIYDASDLTSGVPSRFSGSGSGTDFTLTISSLQPEDFATYYCQGYGGSSTTTFGCGTKLTVLGGGGGSEVQLVESGGGLVQPGGSLRLSCAASGFSLSSYDMSWVRQAPGKGLAWIGASYASGPTYYASWAKGRFTISRDNSKNTVYLQMNSLRAEDTATYFCARGGWTGTSHSNIWGQGTLVTVSSGGGGSGGGGSGGGGSGGGGSDIQMTQSPSSLSASVGDRVTITCQSSQSVFSNNYLAWFQQKPGQSPKRLIYSASTLASGVPSRFSGSGSGTDFTLTISSLQPEDFATYYCLGSYACSSADCYVFGTGTKVTVLGGGGGSEVQLVESGGGLVQPGGSLRLSCAASGFSLSSYAMNWVRQAPGKCLEWIGHINAGDIAYYATWAKGRFTISRDNSKNTVYLQMNSLRAEDTAVYFCARGAGGFSTGPFKLWGQGTLVTVSSGGGGSGGGGSAQQLTQSPSSLSASVGDRVTITCQASQNVWNNNYLSWFQQKPGKPPKLLIVTASTLASGVSSRFSGSGSGTDFTLTISSLQPEDFATYYCAGGFSGEIRAFGCGTKVTVLGGGGGSGGGGSGGGGSGGGGSQSQLVESGGGLVQPGGSLRLSCAVSGIDLSRNAMSWVRQAPGKCLEWIGIILTSGSTYYASWAKGRFTISKTSTTLDLQMNSLRAEDTAVYFCVRGIASSSLKSFWGQGTLVTVSS | 1.6 | 0.00067 | 420000 | 3.27 | 2.43 | 3.1 | 0.0031 | 430000 | 5.5 | 0.00042 | 0.0014 | 69.3 | 77.7 | 87.5 | 3.3 | 0.2 | 0.55 | 48.7 | 65.3 | 81.5 | Avg. EC50 (nM) CD8 T cell act. (JIMT-1) [8]: 5.4 nM; Avg. EC50 (nM) CD8 T cell act. (MDA-MB-231) [8]: 0.52 nM; Avg. EC50 (nM) CD8 T cell act. (SKOV3) [8]: 1.2 nM; Avg. % max. lysis (JIMT-1) [9]: 83%; Avg. % max. lysis (MDA-MB-231) [9]: 78.2%; Avg. % max. lysis (SKOV3) [9]: 88%; Avg. EC50 (nM) CD8 T cell act. (MDA-MB-231) [9]: 0.52 nM; Avg. EC50 (nM) CD8 T cell act. (SKOV3) [9]: 1.2 nM; Avg. EC50 (nM) Cytotoxicity (JIMT-1) [9]: 3.4 nM; Avg. EC50 (nM) Cytotoxicity (MDA-MB-231) [9]: 0.74 nM; Avg. EC50 (nM) Cytotoxicity (SKOV3) [9]: 1.3 nM |
| PRO2507 (bispecific antibody, trispecific anti-ROR1 x hSA x CD3 scMATCH3, single chain; also called 19-04-A10-sc06 scDb-o/28-21-D09-sc04 scDb-i/55-38-D07-sc02-scFv) AFELTQSPSSLSASVGDRVTITCQASESINSRLAWYQQKPGQPPKLLIYDASDLTSGVPSRFSGSGSGTDFTLTISSLQPEDFATYYCQGYGGSSTTTFGCGTKLTVLGGGGGSEVQLVESGGGLVQPGGSLRLSCAASGFSLSSYDMSWVRQAPGKGLAWIGASYASGPTYYASWAKGRFTISRDNSKNTVYLQMNSLRAEDTATYFCARGGWTGTSHSNIWGQGTLVTVSSGGGGSGGGGSGGGGSGGGGSDIQMTQSPSSLSASVGDRVTITCQSSQSVFSNNYLAWFQQKPGQSPKRLIYSASTLASGVPSRFSGSGSGTDFTLTISSLQPEDFATYYCLGSYACSSADCYVFGTGTKVTVLGGGGGSEVQLVESGGGLVQPGGSLRLSCAASGFSLSSYAMNWVRQAPGKCLEWIGHINAGDIAYYATWAKGRFTISRDNSKNTVYLQMNSLRAEDTAVYFCARGAGGFSTGPFKLWGQGTLVTVSSGGGGSGGGGSDVQMTQSPSSLSASVGDRVTITCRASENIYSGLAWYQQKPGKPPKLLIYRASTLASGVSSRFSGSGSGTDFTLTISSLQPEDFATYYCQGGYYSSSSTYIAFGTGTKVTVLGGGGGSGGGGSGGGGSGGGGSQSQVVESGGGLVQPGGSLRLSCAVSGFDLSSYAVSWVRQAPGKGLEWIGIIYPRANTYYASWAKGRFTISKDNSKNTVYLQMNSLRAEDTAVYFCARDRYDSGAYLYTTYFNLWGQGTLVTVSS | < 0.12 | < 1e-05 | 82000 | 26.9 | 2.88 | 1 | 0.006 | 340000 | 9.4 | 0.0069 | 0.0078 | 63.2 | 81.8 | 83.3 | 2.4 | 0.14 | 0.22 | 40.8 | 68 | 64.3 | Avg. EC50 (nM) CD8 T cell act. (JIMT-1) [8]: 2.9 nM; Avg. EC50 (nM) CD8 T cell act. (MDA-MB-231) [8]: 0.36 nM; Avg. EC50 (nM) CD8 T cell act. (SKOV3) [8]: 0.34 nM; Avg. % max. lysis (JIMT-1) [9]: 63.9%; Avg. % max. lysis (MDA-MB-231) [9]: 64.6%; Avg. % max. lysis (SKOV3) [9]: 79.1%; Avg. EC50 (nM) CD8 T cell act. (MDA-MB-231) [9]: 0.36 nM; Avg. EC50 (nM) CD8 T cell act. (SKOV3) [9]: 0.34 nM; Avg. EC50 (nM) Cytotoxicity (JIMT-1) [9]: 2 nM; Avg. EC50 (nM) Cytotoxicity (MDA-MB-231) [9]: 0.47 nM; Avg. EC50 (nM) Cytotoxicity (SKOV3) [9]: 0.42 nM |
